Key:
MASP2 in human serum [1] = target: T1, MASP2 in human serum (human, UniProt O00187 16-686); assay: cell-based or functional assay
MASP2 in monkey serum = MASP2 in monkey serum (monkey); assay: cell-based or functional assay
MASP2 in mouse serum = MASP2 in mouse serum (mouse, UniProt Q91WP0 20-685); assay: cell-based or functional assay
[2] = target: Murine MASP2A (S632A) protein (murine, UniProt Q91WP0 16-685); assay: SPR (Biacore 8K), antibody captured on anti-human Fc chip, antigen as analyte, 1:1 fit
Experimental: The binding properties of the anti-MASP2 antibodies were determined by the method of Biacore. […] An anti-human Fc IgG capture chip was used to capture the antibodies, then antigens with different concentrations were used as a mobile phase for the determination, and finally curve fitting was performed according to a 1:1 mode to obtain affinity values.

MASP2 in human serum [3] = target: T1, MASP2 in human serum; assay: cell-based or functional assay; remark: listed apart in the source

Chain of Murine MASP2A (S632A) protein (Q91WP0 other isoform, or with tags, fused parts or gaps S632A S632A): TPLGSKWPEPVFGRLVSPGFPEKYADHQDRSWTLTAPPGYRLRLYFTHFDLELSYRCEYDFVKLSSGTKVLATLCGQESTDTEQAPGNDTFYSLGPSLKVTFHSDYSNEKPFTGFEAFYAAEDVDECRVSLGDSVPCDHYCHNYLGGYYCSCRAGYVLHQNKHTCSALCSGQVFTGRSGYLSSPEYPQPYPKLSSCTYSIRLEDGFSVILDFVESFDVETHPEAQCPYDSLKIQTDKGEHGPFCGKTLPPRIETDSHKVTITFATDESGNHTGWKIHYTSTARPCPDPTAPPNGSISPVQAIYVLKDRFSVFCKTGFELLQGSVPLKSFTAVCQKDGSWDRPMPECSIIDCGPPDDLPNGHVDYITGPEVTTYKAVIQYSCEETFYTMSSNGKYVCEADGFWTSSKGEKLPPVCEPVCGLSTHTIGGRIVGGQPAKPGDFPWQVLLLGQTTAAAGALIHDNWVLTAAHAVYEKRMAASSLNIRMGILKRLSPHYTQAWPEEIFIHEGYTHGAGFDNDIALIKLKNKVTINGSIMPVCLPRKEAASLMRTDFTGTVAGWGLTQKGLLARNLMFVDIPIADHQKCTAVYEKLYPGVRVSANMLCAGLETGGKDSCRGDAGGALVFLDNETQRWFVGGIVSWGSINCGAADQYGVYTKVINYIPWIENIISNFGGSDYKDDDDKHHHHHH
T1 sequence (O00187 16-686 limits assumed): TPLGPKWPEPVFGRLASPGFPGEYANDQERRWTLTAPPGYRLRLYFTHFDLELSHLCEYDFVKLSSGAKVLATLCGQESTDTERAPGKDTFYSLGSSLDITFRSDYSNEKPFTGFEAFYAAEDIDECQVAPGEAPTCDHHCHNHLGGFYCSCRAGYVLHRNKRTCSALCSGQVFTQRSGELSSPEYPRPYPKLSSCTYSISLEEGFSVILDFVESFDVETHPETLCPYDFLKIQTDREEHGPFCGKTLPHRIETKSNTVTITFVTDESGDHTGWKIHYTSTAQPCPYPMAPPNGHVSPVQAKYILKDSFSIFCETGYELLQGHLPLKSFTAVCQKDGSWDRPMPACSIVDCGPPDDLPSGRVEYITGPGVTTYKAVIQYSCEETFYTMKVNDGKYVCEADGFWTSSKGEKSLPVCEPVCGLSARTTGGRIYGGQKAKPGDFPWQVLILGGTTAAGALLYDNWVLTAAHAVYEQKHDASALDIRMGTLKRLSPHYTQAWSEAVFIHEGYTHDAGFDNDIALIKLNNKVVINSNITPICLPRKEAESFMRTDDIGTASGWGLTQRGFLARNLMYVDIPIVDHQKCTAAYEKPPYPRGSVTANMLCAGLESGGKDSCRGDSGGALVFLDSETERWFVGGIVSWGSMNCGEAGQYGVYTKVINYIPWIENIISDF
Chain of MASP2 in mouse serum (Q91WP0 20-685 limits assumed): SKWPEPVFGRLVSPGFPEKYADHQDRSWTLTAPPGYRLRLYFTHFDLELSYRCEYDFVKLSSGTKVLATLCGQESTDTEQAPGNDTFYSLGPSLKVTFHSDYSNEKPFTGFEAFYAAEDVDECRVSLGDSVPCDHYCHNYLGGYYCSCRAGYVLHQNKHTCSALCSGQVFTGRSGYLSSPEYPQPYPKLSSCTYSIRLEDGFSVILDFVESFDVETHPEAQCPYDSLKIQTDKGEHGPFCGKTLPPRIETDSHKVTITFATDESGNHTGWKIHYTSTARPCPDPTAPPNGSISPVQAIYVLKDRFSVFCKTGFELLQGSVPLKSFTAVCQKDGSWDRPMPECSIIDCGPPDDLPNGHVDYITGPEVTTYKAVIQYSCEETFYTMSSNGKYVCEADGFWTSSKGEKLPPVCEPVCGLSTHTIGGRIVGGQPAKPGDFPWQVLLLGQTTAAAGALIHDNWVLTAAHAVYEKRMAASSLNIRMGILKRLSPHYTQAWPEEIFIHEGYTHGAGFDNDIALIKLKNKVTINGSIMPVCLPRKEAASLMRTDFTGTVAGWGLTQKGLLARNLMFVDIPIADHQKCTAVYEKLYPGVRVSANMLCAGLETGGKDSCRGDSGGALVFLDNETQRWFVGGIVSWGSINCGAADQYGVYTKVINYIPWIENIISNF

B1: 11165 (antibody, human IgG4 S228P, lambda, V domains shown)
VH: QVQLQESGPGLVKPSETLSLTCTVSGGSISSGEYFWGWIRQPPGKGLEWIGSIYYSGSTYYNPSLKSRVTISVDTSKNQFSLKLSSVTAADTAVYYCARSLKAARRDAFDIWGQGTTVTVSS
VL: QSVLTQPPSVSVSPGQTASITCSGHKLGDKYAYWYQQKPGQSPVLVIYQDTKRPSGIPERFSGFNSGNTATLTISGTQATDEADYYCQTWDSSTGVFGAGTKVTVLG
notes: Fully human antibody from phage display; Full-length human IgG4 (S228P), lambda light chain
Question: What does the source list for B1?
Answer: 90% human serum IC50 (µg/mL), inhibition of the lectin pathway (C4c deposition on mannan) (MASP2 in human serum [1]): 0.93 µg/mL; 90% monkey serum IC50 (µg/mL), inhibition of the lectin pathway (C4c deposition on mannan) (MASP2 in monkey serum): 21.1 µg/mL; 90% mouse serum IC50 (µg/mL), inhibition of the lectin pathway (C4c deposition on mannan) (MASP2 in mouse serum): 4.26 µg/mL; Kd [2]: 0.435 nM; koff [2]: 0.00192 s⁻¹; kon [2]: 4.41e+06 M⁻¹ s⁻¹; IC50 (µg/mL), inhibition of the lectin pathway in 1% human serum (C4c deposition on mannan) (MASP2 in human serum [3]): 0.499 µg/mL

— patent publication US20240209114A1 (JIANGSU HENGRUI PHARMACEUTICALS, published 2024)
